Experimental data from publication PMC2952866 (Nucleic Acids Research, 2010).

Experiments:
Assay in all cases: SEC + co-IP
Mcm3 = Mcm3 (Saccharomyces cerevisiae, UniProt P24279 1-971)
Mcm6 = Mcm6 (Saccharomyces cerevisiae, UniProt P53091 1-1017)
Mcm4 = molecular target: T1, Mcm4 (Saccharomyces cerevisiae, UniProt P30665 1-933)
T1 sequence: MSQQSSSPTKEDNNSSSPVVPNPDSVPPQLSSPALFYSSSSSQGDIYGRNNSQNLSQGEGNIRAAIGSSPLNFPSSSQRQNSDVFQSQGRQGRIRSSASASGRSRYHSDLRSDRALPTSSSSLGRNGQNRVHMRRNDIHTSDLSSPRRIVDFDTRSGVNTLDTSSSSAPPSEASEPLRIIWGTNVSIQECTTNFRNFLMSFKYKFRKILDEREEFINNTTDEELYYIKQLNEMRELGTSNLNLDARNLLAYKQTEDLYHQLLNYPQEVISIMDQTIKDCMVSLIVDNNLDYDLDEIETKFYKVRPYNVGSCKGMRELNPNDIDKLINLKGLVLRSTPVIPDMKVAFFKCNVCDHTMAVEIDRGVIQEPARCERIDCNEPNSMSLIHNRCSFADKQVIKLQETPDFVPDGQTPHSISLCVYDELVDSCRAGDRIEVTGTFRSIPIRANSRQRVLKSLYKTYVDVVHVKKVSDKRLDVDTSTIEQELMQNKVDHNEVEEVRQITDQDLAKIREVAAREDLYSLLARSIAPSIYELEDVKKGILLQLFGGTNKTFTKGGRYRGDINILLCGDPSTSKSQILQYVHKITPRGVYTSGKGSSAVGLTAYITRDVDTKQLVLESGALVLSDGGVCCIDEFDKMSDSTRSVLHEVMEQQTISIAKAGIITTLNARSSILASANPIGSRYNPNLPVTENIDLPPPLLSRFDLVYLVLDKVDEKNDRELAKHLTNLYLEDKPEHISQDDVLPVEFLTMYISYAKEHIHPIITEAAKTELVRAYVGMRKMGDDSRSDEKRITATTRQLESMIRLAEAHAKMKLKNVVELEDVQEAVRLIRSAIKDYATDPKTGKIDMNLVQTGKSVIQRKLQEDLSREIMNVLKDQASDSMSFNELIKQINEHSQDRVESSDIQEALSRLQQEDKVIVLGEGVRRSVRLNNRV

Mcm2 = molecular target: T2, Mcm2 (Saccharomyces cerevisiae, UniProt P29469 1-868)
T2 sequence: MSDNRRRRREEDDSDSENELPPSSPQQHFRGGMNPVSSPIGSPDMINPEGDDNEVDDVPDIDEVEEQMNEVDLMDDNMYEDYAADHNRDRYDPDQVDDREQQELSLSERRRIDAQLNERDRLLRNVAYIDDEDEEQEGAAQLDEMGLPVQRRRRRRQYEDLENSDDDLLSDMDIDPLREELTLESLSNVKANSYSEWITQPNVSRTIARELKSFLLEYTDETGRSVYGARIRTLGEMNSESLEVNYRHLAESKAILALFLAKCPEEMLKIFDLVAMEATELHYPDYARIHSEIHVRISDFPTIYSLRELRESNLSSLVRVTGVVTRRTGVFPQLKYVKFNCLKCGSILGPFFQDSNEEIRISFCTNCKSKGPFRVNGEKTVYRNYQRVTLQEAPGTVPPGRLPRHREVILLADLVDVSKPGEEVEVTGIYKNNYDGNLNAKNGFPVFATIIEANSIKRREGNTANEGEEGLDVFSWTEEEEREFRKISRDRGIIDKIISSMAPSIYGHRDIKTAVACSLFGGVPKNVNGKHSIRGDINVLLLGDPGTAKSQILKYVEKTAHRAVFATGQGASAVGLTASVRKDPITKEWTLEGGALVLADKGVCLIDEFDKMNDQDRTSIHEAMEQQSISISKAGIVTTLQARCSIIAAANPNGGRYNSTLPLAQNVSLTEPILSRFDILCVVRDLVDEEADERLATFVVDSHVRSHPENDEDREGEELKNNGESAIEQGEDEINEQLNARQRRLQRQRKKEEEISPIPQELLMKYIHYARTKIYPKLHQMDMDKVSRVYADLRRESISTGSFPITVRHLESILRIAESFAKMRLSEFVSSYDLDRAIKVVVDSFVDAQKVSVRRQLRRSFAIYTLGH

Measured: binding result

Mcm6, sequence (P53091 whole entry): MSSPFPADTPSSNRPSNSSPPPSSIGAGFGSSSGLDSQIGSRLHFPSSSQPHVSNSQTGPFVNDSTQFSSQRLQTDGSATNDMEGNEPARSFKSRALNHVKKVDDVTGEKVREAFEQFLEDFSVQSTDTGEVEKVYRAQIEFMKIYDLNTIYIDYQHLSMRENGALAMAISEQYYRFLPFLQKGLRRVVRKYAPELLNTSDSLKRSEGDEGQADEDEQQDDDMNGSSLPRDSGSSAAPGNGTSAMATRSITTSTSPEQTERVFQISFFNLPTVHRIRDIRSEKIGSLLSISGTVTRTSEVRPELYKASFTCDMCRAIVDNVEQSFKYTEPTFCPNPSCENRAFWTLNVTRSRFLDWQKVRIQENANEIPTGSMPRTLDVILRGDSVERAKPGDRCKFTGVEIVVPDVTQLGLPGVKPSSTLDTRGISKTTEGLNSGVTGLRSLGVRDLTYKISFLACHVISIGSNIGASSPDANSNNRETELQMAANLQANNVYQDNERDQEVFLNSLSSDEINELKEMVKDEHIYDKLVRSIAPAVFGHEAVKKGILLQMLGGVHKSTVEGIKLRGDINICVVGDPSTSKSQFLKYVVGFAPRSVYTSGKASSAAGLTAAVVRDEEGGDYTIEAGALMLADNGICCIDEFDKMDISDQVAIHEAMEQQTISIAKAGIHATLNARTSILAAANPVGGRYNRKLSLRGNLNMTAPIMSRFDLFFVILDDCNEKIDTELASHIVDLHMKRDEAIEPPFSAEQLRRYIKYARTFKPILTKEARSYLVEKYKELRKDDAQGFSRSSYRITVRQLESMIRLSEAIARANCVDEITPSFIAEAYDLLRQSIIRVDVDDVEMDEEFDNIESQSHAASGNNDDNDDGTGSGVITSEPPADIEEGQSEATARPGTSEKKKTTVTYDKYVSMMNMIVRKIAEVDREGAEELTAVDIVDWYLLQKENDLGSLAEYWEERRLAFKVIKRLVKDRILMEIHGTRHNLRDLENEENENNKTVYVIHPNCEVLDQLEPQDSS
Mcm3, sequence (P24279 whole entry): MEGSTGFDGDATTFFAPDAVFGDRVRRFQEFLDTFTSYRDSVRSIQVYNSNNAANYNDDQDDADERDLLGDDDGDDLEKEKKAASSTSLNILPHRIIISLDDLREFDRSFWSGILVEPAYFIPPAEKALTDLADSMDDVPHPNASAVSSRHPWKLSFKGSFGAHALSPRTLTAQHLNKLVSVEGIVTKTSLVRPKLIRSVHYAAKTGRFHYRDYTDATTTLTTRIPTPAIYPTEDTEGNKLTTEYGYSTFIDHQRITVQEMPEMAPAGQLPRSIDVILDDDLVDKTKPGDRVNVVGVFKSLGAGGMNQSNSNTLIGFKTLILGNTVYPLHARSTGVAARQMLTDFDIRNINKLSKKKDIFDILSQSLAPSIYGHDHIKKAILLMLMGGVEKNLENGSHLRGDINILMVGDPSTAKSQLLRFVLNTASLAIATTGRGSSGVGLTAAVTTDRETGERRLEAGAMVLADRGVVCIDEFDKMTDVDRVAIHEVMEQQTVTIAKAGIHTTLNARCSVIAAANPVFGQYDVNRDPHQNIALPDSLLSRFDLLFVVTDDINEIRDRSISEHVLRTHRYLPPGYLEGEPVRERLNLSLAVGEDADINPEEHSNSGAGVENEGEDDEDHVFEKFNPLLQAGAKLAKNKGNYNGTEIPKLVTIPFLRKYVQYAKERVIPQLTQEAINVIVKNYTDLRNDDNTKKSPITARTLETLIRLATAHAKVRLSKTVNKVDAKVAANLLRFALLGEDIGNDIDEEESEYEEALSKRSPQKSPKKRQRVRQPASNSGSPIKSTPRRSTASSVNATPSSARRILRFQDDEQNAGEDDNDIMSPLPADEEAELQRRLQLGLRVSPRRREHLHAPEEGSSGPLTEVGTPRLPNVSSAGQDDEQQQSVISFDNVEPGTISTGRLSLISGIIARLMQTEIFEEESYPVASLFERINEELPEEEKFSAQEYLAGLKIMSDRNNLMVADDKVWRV

B1: Mcm7 (natural protein)
chain: MSAALPSIQLPVDYNNLFNEITDFLVTFKQDTLSSDATRNENEDENLDAENIEQHLLEKGPKYMAMLQKVANRELNSVIIDLDDILQYQNEKFLQGTQADDLVSAIQQNANHFTELFCRAIDNNMPLPTKEIDYKDDVLDVILNQRRLRNERMLSDRTNEIRSENLMDTTMDPPSSMNDALREVVEDETELFPPNLTRRYFLYFKPLSQNCARRYRKKAISSKPLSVRQIKGDFLGQLITVRGIITRVSDVKPAVEVIAYTCDQCGYEVFQEVNSRTFTPLSECTSEECSQNQTKGQLFMSTRASKFSAFQECKIQELSQQVPVGHIPRSLNIHVNGTLVRSLSPGDIVDVTGIFLPAPYTGFKALKAGLLTETYLEAQFVRQHKKKFASFSLTSDVEERVMELITSGDVYNRLAKSIAPEIYGNLDVKKALLLLLVGGVDKRVGDGMKIRGDINVCLMGDPGVAKSQLLKAICKISPRGVYTTGKGSSGVGLTAAVMKDPVTDEMILEGGALVLADNGICCIDEFDKMDESDRTAIHEVMEQQTISISKAGINTTLNARTSILAAANPLYGRYNPRLSPLDNINLPAALLSRFDILFLMLDIPSRDDDEKLAEHVTYVHMHNKQPDLDFTPVEPSKMREYIAYAKTKRPVMSEAVNDYVVQAYIRLRQDSKREMDSKFSFGQATPRTLLGIIRLSQALAKLRLADMVDIDDVEEALRLVRVSKESLYQETNKSKEDESPTTKIFTIIKKMLQETGKNTLSYENIVKTVRLRGFTMLQLSNCIQEYSYLNVWHLINEGNTLKFVDDGTMDTDQEDSLVSTPKLAPQTTASANVSAQDSDIDLQDA
binds: Mcm3 | Mcm6 | Mcm4 | Mcm2
